Results published in doi:10.1101/786475 (bioRxiv, 2019).

Columns and labels:
Experiment in all cases: peptide or protein array
[1] = biological target: Mal12p (spotted on the yeast ProtoArray) (S. cerevisiae, UniProt P53341 1-584)
[2] = biological target: Mal32p (spotted on the yeast ProtoArray) (S. cerevisiae, UniProt P38158 1-584)
[3] = biological target: Frd1p (spotted on the yeast ProtoArray) (S. cerevisiae, UniProt P32614 1-470)
[4] = biological target: T1, Drs1p (spotted on the yeast ProtoArray) (S. cerevisiae, UniProt P32892 1-752)
T1 sequence (looked up): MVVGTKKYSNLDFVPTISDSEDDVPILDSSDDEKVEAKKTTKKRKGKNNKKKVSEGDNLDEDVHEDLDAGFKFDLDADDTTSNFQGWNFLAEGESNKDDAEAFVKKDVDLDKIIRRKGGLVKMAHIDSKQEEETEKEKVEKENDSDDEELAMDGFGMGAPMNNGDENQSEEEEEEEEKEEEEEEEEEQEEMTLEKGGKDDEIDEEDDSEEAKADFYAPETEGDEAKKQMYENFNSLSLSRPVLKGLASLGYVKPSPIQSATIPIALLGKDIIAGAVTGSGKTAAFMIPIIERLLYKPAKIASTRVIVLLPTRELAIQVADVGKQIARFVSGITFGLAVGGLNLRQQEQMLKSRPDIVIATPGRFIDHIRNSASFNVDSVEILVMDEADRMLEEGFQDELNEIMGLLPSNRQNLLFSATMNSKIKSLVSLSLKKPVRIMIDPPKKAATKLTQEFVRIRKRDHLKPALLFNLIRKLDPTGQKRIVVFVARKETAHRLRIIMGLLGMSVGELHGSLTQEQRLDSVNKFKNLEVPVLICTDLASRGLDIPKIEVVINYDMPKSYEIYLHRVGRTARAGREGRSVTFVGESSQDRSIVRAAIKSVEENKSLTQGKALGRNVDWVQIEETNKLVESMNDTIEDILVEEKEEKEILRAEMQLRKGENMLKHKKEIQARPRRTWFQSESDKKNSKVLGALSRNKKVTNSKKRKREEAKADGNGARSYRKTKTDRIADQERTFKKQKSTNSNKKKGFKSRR

[5] = biological target: T2, Pol30p (spotted on the yeast ProtoArray) (S. cerevisiae, UniProt P15873 1-258)
T2 sequence (looked up): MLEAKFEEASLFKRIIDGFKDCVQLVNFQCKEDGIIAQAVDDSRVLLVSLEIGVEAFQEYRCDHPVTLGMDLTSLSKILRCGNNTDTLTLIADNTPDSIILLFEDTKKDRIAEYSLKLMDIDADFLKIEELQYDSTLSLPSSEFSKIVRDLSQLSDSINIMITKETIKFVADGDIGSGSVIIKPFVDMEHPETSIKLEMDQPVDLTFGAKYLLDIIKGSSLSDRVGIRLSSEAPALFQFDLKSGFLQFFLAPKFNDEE

Mal32p (spotted on the yeast ProtoArray), sequence (P38158 whole entry): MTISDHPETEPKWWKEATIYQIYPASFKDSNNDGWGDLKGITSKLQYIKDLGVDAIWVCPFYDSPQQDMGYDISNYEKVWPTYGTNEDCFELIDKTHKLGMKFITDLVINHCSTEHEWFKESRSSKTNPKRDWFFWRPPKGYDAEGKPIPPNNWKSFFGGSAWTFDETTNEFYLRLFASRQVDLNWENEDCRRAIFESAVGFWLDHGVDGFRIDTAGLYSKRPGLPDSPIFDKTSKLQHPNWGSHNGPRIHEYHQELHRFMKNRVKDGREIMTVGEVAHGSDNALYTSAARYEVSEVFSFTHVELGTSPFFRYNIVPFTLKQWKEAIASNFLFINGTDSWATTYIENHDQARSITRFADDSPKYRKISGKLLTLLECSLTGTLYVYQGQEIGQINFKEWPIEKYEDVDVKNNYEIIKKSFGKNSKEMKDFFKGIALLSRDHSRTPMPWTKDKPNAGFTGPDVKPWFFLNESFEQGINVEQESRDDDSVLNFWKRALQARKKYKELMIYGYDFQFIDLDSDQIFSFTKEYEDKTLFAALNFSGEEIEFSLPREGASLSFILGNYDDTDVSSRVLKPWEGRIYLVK
Frd1p (spotted on the yeast ProtoArray), sequence (P32614 whole entry): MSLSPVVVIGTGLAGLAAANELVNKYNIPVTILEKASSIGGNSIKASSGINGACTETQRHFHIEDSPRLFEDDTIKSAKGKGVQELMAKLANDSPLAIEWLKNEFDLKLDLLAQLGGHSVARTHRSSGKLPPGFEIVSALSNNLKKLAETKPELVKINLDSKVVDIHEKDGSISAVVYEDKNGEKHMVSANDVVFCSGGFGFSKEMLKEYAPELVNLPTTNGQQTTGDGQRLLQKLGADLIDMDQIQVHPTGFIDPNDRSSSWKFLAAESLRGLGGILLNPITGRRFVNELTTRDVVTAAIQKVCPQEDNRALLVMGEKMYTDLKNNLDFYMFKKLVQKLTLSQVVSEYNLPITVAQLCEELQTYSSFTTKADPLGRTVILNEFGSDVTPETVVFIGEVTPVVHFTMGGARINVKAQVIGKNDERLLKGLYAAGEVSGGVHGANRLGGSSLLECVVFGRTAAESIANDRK
Mal12p (spotted on the yeast ProtoArray), sequence (P53341 whole entry): as the sequence (P38158 whole entry) above, with L305V, F467L counted along it

binding result [1]: binds | binding result [2]: binds | binding result [3]: binds | binding result [4]: binds | binding result [5]: binds
B1: purified and biotinylated cytoplasmic domain of the Msb2p protein (HIS-Msb2p^CYT) (domain or fragment, S. cerevisiae, UniProt P32334 1207-1306, looked up)
chain: AFKYIIRRRIQSQEIIKNPEISSISSSEFGGEKNYNNEKRMSVQESITQSMRIQNWMDDSYYGHGLTNNDSTPTRHNTSSSIPKISRPIASQNSLGWNEV
modifications: biotinylated in vitro (sites not given)
